Results taken from US20180031566A1 (VENTANA MEDICAL SYSTEMS, published 2018).

T1: recombinant protein for uPAR-Like domain 1 of C4.4a (amino acids 31-116) (human, UniProt O95274 31-116)
T1 construct: Recombinant domain used in ELISA
T1 sequence: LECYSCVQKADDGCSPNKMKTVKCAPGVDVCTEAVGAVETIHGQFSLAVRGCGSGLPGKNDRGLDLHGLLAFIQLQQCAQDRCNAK

T2: recombinant protein for uPAR-like domain 2 of C4.4a (amino acids 139-224) (human, UniProt O95274 139-224)
T2 construct: Recombinant domain used in ELISA
T2 sequence: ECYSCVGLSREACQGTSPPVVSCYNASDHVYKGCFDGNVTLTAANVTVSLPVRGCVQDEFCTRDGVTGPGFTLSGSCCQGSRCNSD

B1: anti-C4.4a antibody clone S20H1L1 (antibody, V domains shown)
VH: QEQLEESGGGLVKPGGTLTLTCTASGFSLISTYYICWVRQAPGKGLEWIGCIPLSHSVSWYANWVNGRFSISKTSSTTVTLKMASLTDADTATYFCGRGSSGWGVDSKLWGPGTLVTVSS
VL: AVLTQTPSPVSASVGGTVTINCQSSPSVASGYLSWFQQKPGQPPKLLIYRASTLVSGVPSRFKGSGSGTHFTLTISDVQCDDAATYYCAGAYSSRSDTTFGGGTEVVVK
notes: Rabbit monoclonal antibody; also called SP245 (a S20H1L1 clone)
B2: anti-C4.4a antibody clone S42H9L5 (antibody, V domains shown)
VH: QSLEESGGRLVKPDETLTLTCTVSGFSLNTVAISWVRQAPGKGLEWIGFIHPTVNTYYARWAKGRFTISRASSTTVDLKVTSLTFEDAATYFCVRGNAHYDIWGPGTLVTVSL
VL: AFELTQTPSLVSAAVGGTVTISCQSSQSVYSDNYLAWYQQKPGQRPKLLIYKASDLASGVPSRFKGSGSGTEFTLTISDLECADAATYYCQSYYGVSSDSNAFGGGTEVVVK
notes: Rabbit monoclonal antibody; also called SP246 (a S42H9L5 clone)

Experiments:
[1] = molecular target: T1, recombinant protein for uPAR-Like …; assay: ELISA with recombinant domain proteins
[2] = molecular target: T2, recombinant protein for uPAR-like …; assay: ELISA with recombinant domain proteins

Binder	binding result [1]	binding result [2]
B1	binds	
B2		binds
